Experimental data as given in PMC5040590, “A model for regulation by SynGAP-α1 of binding of synaptic proteins to PDZ-domain 'Slots' in the postsynaptic density” (eLife, 2016).

Target: CaM-Sepharose 4B (calmodulin on Sepharose resin) (UniProt P62157 1-149)
Experiment: pull-down; equilibrium binding of purified synGAP (1-500 nM, 300 µl) to 50 µl CaM-Sepharose 4B, 60 min; 50 mM Tris pH 7.5, 200 mM NaCl, 5 mM TCEP, 2 mM CaCl2; bound protein by quantitative immunoblot; hyperbolic fit
Conditions: both partners purified

B1: sr-synGAP (residues 103-725) (domain or fragment)
chain: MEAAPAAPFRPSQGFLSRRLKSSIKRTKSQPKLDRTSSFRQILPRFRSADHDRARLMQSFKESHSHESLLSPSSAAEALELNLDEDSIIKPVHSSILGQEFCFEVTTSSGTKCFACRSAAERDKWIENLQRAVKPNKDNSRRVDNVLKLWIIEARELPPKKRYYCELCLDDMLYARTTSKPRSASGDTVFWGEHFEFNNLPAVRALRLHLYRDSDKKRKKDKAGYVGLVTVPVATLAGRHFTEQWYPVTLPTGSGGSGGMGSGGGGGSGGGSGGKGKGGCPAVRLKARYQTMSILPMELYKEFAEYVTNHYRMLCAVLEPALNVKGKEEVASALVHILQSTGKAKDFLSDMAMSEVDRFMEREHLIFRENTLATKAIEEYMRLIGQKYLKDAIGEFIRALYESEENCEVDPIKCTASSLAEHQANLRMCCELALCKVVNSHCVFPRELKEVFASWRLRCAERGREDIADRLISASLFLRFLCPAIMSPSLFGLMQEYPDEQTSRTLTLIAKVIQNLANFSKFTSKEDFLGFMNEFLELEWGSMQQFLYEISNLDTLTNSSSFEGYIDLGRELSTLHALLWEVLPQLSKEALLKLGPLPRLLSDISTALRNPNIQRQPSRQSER
- Kd: 210 ± 30 nM
